Publication PMC8857485, “Prostate secretory protein 94 inhibits sterol binding and export by the mammalian CAP protein CRISP2 in a calcium-sensitive manner” (The Journal of Biological Chemistry, 2022)

B1: CRISP2 (cysteine-rich secretory protein 2), C-terminal polyhistidine tag [modified: RED-tris-NTA fluorescent label on the His tag; RED-tris-NTA fluorescent label on the His tag] [human] / prostate secretory protein of … (parent)
chain 1: KDPAFTALLTTQLQVQREIVNKHNELRKAVSPPASNMLKMEWSREVTTNAQRWANKCTLQHSDPEDRKTSTRCGENLYMSSDPTSWSSAIQSWYDEILDFVYGVGPKSPNAVVGHYTQLVWYSTYQVGCGIAYCPNQDSLKYYYVCQYCPAGNNMNRKNTPYQQGTPCAGCPDDCDKGLCTNSCQYQDLLSNCDSLKNTAGCEHELLKEKCKATCLCENKIY
chain 2: SCYFIPNEGVPGDSTRKCMDLKGNKHPINSEWQTDNCETCTCYETEISCCTLVSTPVGYDKDNCQRIFKKEDCKYIVVEKKDPKKTCSVSEWII

Variants of: B1
Assay: microscale thermophoresis
Conditions: with prostate secretory protein of 94 amino acids (PSP94), measurements in triplicates, PSP94 titrated (x axis PSP94 [nM])

| Kd [nM] | Variant |
| --- | --- |
| 4 | chain 1 KDPAFTALLTTQLQVQREIVNKHNELRKAVSPPASNMLKMEWSREVTTNAQRWANKCTLQHSDPEDRKTSTRCGEPGYMSSDPTSWSSAIQSWYDEILDFVYGVGPKSPNAVVGHYTQLVWYSTYQVGCGIAYCPNQDSLKYYYVCQYCPAGNNMNRKNTPYQQGTPCAGCPDDCDKGLCTNSCQYQDLLSNCDSLKNTAGCEHELLKEKCKATCLCENKIY [chain 1 N76P L77G] |
